Holding throughout (details): Human immunodeficiency virus 1
For data set [1], the system named is Cc1cn([C@H]2C[C@H](O)[C@@H](COP(=O)(O)OP(=O)(O)OP(=O)(O)O)O2)c(=O)[nH]c1=O. The data set is described as follows: Ratio of Kcat to Km for HIV1 Reverse transcriptase M184V mutant.
Data set [2] has the same test system. The data set is described as follows: Activity of HIV1 Reverse transcriptase M184V mutant.
For data set [3] the test system is unchanged. The data set is described as follows: Activity of HIV1 Reverse transcriptase P119S mutant.
The test system is the same in data set [4]. As to the kind of experiment: Ratio of Kcat to Km for HIV1 Reverse transcriptase P119S mutant.
For data set [5] the test system is unchanged. The data set is described as follows: Ratio of Kcat to Km for HIV1 Reverse transcriptase P119S/M184V mutant.
Data set [6] shares this test system. As to the kind of experiment: Activity of HIV1 Reverse transcriptase P119S/M184V mutant.
The test system is the same in data set [7]. The data set is described as follows: Activity of HIV1 Reverse transcriptase P119S/T165A mutant.
Data set [8] shares this test system. The data set is described as follows: Ratio of Kcat to Km for HIV1 Reverse transcriptase P119S/T165A mutant.
For data set [9] the test system is unchanged. The data set is described as follows: Activity of HIV1 Reverse transcriptase P119S/T165A/M184V mutant.
Data set [10] has the same test system. The data set is described as follows: Ratio of Kcat to Km for HIV1 Reverse transcriptase P119S/T165A/M184V mutant.
Data set [11] shares this test system. As to the kind of experiment: Ratio of Kcat to Km for HIV1 Reverse transcriptase T165A mutant.
Data set [12] has the same test system. As to the kind of experiment: Activity of HIV1 Reverse transcriptase T165A mutant.
Data set [13] has the same test system. The data set is described as follows: Activity of HIV1 Reverse transcriptase T165A/M184V mutant.
The test system is the same in data set [14]. As to the kind of experiment: Ratio of Kcat to Km for HIV1 Reverse transcriptase T165A/M184V mutant.

This note sets out measurements from ChEMBL document CHEMBL1649255, “Impact of novel human immunodeficiency virus type 1 reverse transcriptase mutations P119S and T165A on 4'-ethynylthymidine analog resistance profile” (Antimicrob Agents Chemother, 2009).

As for “Human immunodeficiency virus type 1 reverse transcriptase (Human immunodeficiency virus 1) (from UniProt Q72547) M184V”, the kcat/Km (10'-2/microM/s) in data set [1] was found to be 2.6. Also, in data set [2], the kcat amounted to 3.1 ×10⁻⁴ /s.

Usually Km stands for the concentration of substrate that gives half-maximal velocity. On to “Human immunodeficiency virus type 1 reverse transcriptase (Human immunodeficiency virus 1) (from UniProt Q72547) P119S”, for which, in data set [3], the Km was determined as 0.13 µM and the kcat stood at 3.3 ×10⁻⁴ /s. Also, the kcat/Km (10'-2/microM/s) in data set [4] was found to be 2.5.

As for “Human immunodeficiency virus type 1 reverse transcriptase (Human immunodeficiency virus 1) (from UniProt Q72547) P119S,M184V”, the kcat/Km (10'-2/microM/s) in data set [5] was 2.2. In data set [6], the Km amounted to 0.18 µM and the kcat stood at 4 ×10⁻⁵ /s.

Take “Human immunodeficiency virus type 1 reverse transcriptase (Human immunodeficiency virus 1) (from UniProt Q72547) P119S,T165A”: in [7], the Michaelis constant (Km) is 0.07 µM and the kcat turned out to be 3.6 ×10⁻⁴ /s. For the same substance, the kcat/Km (10'-2/microM/s) in data set [8] turned out to be 5.1.

Consider “Human immunodeficiency virus type 1 reverse transcriptase (Human immunodeficiency virus 1) (from UniProt Q72547) P119S,T165A,M184V”, for which, in data set [9], the Km was 0.15 µM and the kcat amounted to 9 ×10⁻⁵ /s. Moreover, in [10], the kcat/Km (10'-3/microM/s) was determined as 6.

Take “Human immunodeficiency virus type 1 reverse transcriptase (Human immunodeficiency virus 1) (from UniProt Q72547) T165A”: the kcat/Km (10'-2/microM/s) in [11] was found to be 2.7. For the same substance, in data set [12], the Km was 0.1 µM and the kcat was determined as 2.7 ×10⁻⁵ /s.

Regarding “Human immunodeficiency virus type 1 reverse transcriptase (Human immunodeficiency virus 1) (from UniProt Q72547) T165A,M184V”, the kcat in data set [13] is 1.4 ×10⁻⁵ /s. For the same substance, the kcat/Km (10'-2/microM/s) in data set [14] amounted to 1.3.
